Results published in patent publication US20130266574A1 (Regeneron, published 2013).

Columns and labels:
[1] = target: T1, cynomolgus monkey ANGPTL4 N-terminal region (amino acid residues 1-130 of SEQ ID NO:490) with a C-terminal … (cynomolgus monkey (Macaca fascicularis), UniProt Q9BY76 26-130 (human entry)); assay: SPR (Biacore), 25° C., pH 5.75, antigen amino-coupled 1,028 RU; Full mAb, not Fab; pH 5.75
T1 construct: also called MfANGPTL4(1-130)-His
T1 chain: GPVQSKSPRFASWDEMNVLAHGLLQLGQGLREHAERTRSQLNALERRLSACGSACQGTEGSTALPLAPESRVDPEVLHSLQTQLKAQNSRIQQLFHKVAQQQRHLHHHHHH
Procedure: (§1) Kinetic analysis was performed to measure kₐ and kd, and KD values and half-life of antigen/antibody complex dissociation were calculated. The results are shown in Table 4 (H1H268P) and Table 5 (H1H284P).

[2] = target: T2, amino acid residues 26-148 of human ANGPTL4 fused in-line to mouse IgG2a (hANGPTL4-mFc) (human); assay: cell-based or functional assay
T2 chain: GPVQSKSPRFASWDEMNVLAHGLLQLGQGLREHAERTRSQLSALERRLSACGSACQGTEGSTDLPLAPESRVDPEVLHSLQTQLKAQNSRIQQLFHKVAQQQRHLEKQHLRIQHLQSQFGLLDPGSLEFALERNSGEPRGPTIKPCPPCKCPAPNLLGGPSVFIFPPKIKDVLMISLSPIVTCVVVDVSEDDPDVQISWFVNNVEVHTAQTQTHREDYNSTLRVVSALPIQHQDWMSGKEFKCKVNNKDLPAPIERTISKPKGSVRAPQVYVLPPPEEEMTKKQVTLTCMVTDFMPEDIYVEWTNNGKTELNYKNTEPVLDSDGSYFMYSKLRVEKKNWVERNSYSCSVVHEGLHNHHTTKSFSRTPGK

[3] = target: T3, full-length hANGPTL4 (amino acid residues 26-406 of SEQ ID NO:476) with a C-terminal hexa-histidine tag (human, UniProt Q9BY76 26-406); assay: cell-based or functional assay
T3 sequence: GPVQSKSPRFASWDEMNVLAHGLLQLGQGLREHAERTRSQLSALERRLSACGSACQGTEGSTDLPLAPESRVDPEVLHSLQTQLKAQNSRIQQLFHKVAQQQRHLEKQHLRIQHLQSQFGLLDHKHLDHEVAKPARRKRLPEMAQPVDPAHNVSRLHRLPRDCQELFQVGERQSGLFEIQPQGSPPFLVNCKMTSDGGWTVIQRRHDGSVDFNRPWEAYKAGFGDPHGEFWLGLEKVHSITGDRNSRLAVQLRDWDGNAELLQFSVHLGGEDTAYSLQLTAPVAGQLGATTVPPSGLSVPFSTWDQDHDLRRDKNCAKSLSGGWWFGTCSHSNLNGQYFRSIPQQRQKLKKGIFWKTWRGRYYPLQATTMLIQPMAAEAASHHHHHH

[4] = target: T2, amino acid residues 26-148 of human …; assay: SPR (Biacore), 25° C., pH 7.2, antigen captured by anti-mFc
Procedure: as §1

[5] = target: T3, full-length hANGPTL4 (amino acid …); assay: SPR (Biacore), 25° C., pH 7.2, antigen amino-coupled 450 RU
Procedure: as §1

[6] = target: T1, cynomolgus monkey ANGPTL4 N-terminal …; assay: SPR (Biacore), 25° C., pH 5.75, antigen amino-coupled 1,028 RU
Procedure: as §1

[7] = target: T2, amino acid residues 26-148 of human …; assay: cell-based or functional assay
[8] = target: T3, full-length hANGPTL4 (amino acid …); assay: cell-based or functional assay; remark: listed apart in the source
[9] = target: T2, amino acid residues 26-148 of human …; assay: SPR (Biacore T100), hANGPTL4-mFc captured by anti-mouse IgG, antibody injected, 25° C.
Procedure: Antigen-antibody binding and dissociation were monitored in real time at 25° C. and 37° C. Kinetic analysis was performed to calculate KD and half-life of antigen/antibody complex dissociation.

[10] = target: T1, cynomolgus monkey ANGPTL4 N-terminal …; assay: SPR (Biacore), 25° C., pH 7.2, antigen amino-coupled 1,028 RU
Procedure: as §1

[11] = target: T3, full-length hANGPTL4 (amino acid …); assay: SPR (Biacore), 25° C., pH 5.75, antigen amino-coupled 450 RU
Procedure: as §1

[12] = target: T2, amino acid residues 26-148 of human …; assay: SPR (Biacore), 25° C., pH 5.75, antigen captured by anti-mFc
Procedure: as §1

B1: H1H284P (antibody, V domains shown)
VH: QVQLVESGGGVVQPGRSLRLSCAASGFTFSSYGMHWVRQAPGKGLEWMAVISFDGGNKNNADSVKGRFTISRDNSKNTLYLQMNSLRAEDTAVYYCAKEGDRSGHPYFYYYGLDVWGQGTTVTVS
VL: DIQLTQSPSFLSASVGDRVTITCWASQGISSYLAWYQQKPGKAPKLLIYAASTLQSGVPSRFSGSGSETEFTLTISSLQPEDFATYYCQQLHSYPLTFGGGTKVEIK
notes: also called entire H1H284 mAb; Full mAb
- Kd [1]: 54.3 pM
- IC50, antibody concentration required for 50% maximum inhibition of 2 nM hANGPTL4-mFc (LPL lipase test) [2]: 800 pM
- IC50, antibody concentration required for 50% maximum inhibition of 10 nM hANGPTL4-His (LPL lipase test) [3]: 500 pM
- Kd [4]: 196 pM
- koff [4]: 5.36e-05 s⁻¹
- kon [4]: 274000 M⁻¹ s⁻¹
- t1/2 [4]: 3.6 h
- Kd [5]: 105 pM
- koff [5]: 8.85e-05 s⁻¹
- kon [5]: 850000 M⁻¹ s⁻¹
- t1/2 [5]: 2.17 h
- koff [6]: 8.42e-05 s⁻¹
- kon [6]: 1.55e+06 M⁻¹ s⁻¹
- t1/2 [6]: 2.28 h
- IC50 (nM) in the LPL inhibition assay, constant ANGPTL4 2 nM [7]: 0.33 nM
- IC50 (nM) in the LPL inhibition assay, constant ANGPTL4 10 nM [8]: 0.42 nM
- Kd [9]: 168 pM
- t1/2 [9]: 2.7 h
- Kd [10]: 125 pM
- koff [10]: 5.83e-05 s⁻¹
- kon [10]: 467000 M⁻¹ s⁻¹
- t1/2 [10]: 3.3 h
- Kd [11]: 141 pM
- koff [11]: 0.000272 s⁻¹
- kon [11]: 1.93e+06 M⁻¹ s⁻¹
- t1/2 [11]: 0.7 h
- Kd [12]: 81.9 pM
- koff [12]: 8.91e-05 s⁻¹
- kon [12]: 1.09e+06 M⁻¹ s⁻¹
- t1/2 [12]: 2.17 h

B2: H1H268P (antibody, V domains shown)
VH: QVQLQESGAGLLKPSETLSLTCTVYGGSFSIHHWTWIRHPPGKGLEWIGEINHRGSTNYNPSLKSRVTISIDTSKNQFSLKLSAVTAADTAVYYCARGLRFLDWLSSYFDYWGQGTLVTVSS
VL: DIQMTQSPSSLSASVGDRVTITCRASQGISDYLAWYQQKPGKVPNLLIYAASALQSGVPSRFSGSGSGTDFTLTISSLQPEDVATYYCQNYNTAPLTFGGGTKVEIK
notes: also called entire H1H268 mAb; Full mAb
- Kd [1]: 77.2 pM
- koff [1]: 8.24e-05 s⁻¹
- kon [1]: 1.07e+06 M⁻¹ s⁻¹
- IC50, antibody concentration required for 50% maximum inhibition of 2 nM hANGPTL4-mFc (LPL lipase test) [2]: 1200 pM
- IC50, antibody concentration required for 50% maximum inhibition of 10 nM hANGPTL4-His (LPL lipase test) [3]: 200 pM
- Kd [4]: 629 pM
- koff [4]: 9.59e-05 s⁻¹
- kon [4]: 153000 M⁻¹ s⁻¹
- t1/2 [4]: 2 h
- Kd [5]: 408 pM
- koff [5]: 0.0002 s⁻¹
- kon [5]: 489000 M⁻¹ s⁻¹
- t1/2 [5]: 0.967 h
- t1/2 [6]: 2.33 h
- IC50 (nM) in the LPL inhibition assay, constant ANGPTL4 2 nM [7]: 0.67 nM
- IC50 (nM) in the LPL inhibition assay, constant ANGPTL4 10 nM [8]: 0.2 nM
- Kd [9]: 275 pM
- t1/2 [9]: 1.33 h
- Kd [10]: 122 pM
- koff [10]: 4.76e-05 s⁻¹
- kon [10]: 392000 M⁻¹ s⁻¹
- t1/2 [10]: 4.05 h
- Kd [11]: 483 pM
- koff [11]: 0.000446 s⁻¹
- kon [11]: 923000 M⁻¹ s⁻¹
- t1/2 [11]: 0.433 h
- Kd [12]: 220 pM
- koff [12]: 0.000138 s⁻¹
- kon [12]: 628000 M⁻¹ s⁻¹
- t1/2 [12]: 1.4 h
